Data published in patent US20220002427A1 (ENGMAB SARL, published 2022).
Values joined by “and” are separate entries in the source; they are usually repeats but may differ in a detail not shown here. Identical values can stand only once.

Legend:
[1] = molecular target: T1, human BCMA on cells (human, UniProt Q02223 1-184); test: cell-based or functional assay
T1 sequence (looked up): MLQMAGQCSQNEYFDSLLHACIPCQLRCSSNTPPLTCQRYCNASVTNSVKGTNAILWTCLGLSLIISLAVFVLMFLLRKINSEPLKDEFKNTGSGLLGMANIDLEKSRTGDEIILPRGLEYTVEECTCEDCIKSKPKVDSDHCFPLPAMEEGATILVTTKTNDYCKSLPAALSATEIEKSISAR

[2] = molecular target: T1, human BCMA on cells; test: flow cytometry on H929 multiple myeloma cells, PE anti-human Fc F(ab')2 detection; estimated EC50
Description: (§1) Briefly, cultured cells are harvested, counted and cell viability was evaluated using ViCell. Viable cells are then adjusted to 2×10⁶ cells per ml in BSA-containing FACS Stain Buffer (BD Biosciences). 100 μl of this cell suspension were further aliquoted per well into a round-bottom 96-well plate and incubated with 30 μl of the anti-BCMA antibodies or corresponding IgG control for 30 min at 4° c. All Anti-BCMA/anti-CD3 TCB antibodies (and TCB controls) were titrated and analyzed in final concentration range between 1-300 nM. Cells were then centrifuged (5 min, 350×g), washed with 120 μl/well FACS Stain Buffer (BD Biosciences), resuspended and incubated for an additional 30 min at 4° C. with fluorochrome-conjugated PE-conjugated AffiniPure F(ab′)2 Fragment goat anti-human IgG Fc Fragment Specific (Jackson Immuno Research Lab; 109-116-170). Cells were then washed twice with Stain Buffer (BD Biosciences), fixed using 100 ul BD Fixation buffer per well (#BD Biosciences, 554655) at 4° C. for 20 min, resuspended in 120 μl FACS buffer and analyzed using BD FACS CantoII.

[3] = molecular target: T1, human BCMA on cells; test: flow cytometry on RPMI-8226 multiple myeloma cells, PE anti-human Fc F(ab')2 detection; estimated EC50
Description: as §1

[4] = molecular target: T1, human BCMA on cells; test: cell-based or functional assay; remark: listed apart in the source
[5] = molecular target: T1, human BCMA on cells; test: cell-based or functional assay; remark: listed apart in the source
[6] = molecular target: T1, human BCMA on cells; test: cell-based or functional assay; remark: listed apart in the source
[7] = molecular target: T1, human BCMA on cells; test: flow cytometry on L363 multiple myeloma cells, PE anti-human Fc F(ab')2 detection; estimated EC50
Description: as §1

[8] = molecular target: T1, human BCMA on cells; test: cell-based or functional assay; remark: listed apart in the source

B1: 21-TCBcv (bispecific antibody, human IgG1, kappa, L234A L235A)
heavy 1: not shown
heavy 2: EVQLLESGGGLVQPGGSLRLSCAASGFTFSDNAMGWVRQAPGKGLEWVSAISGPGSSTYYADSVKGRFTISRDNSKNTLYLQMNSLRAEDTAVYYCAKVLGWFDYWGQGTLVTVSSASTKGPSVFPLAPSSKSTSGGTAALGCLVEDYFPEPVTVSWNSGALTSGVHTFPAVLQSSGLYSLSSVVTVPSSSLGTQTYICNVNHKPSNTKVDEKVEPKSCDKTHTCPPCPAPEAAGGPSVFLFPPKPKDTLMISRTPEVTCVVVDVSHEDPEVKFNWYVDGVEVHNAKTKPREEQYNSTYRVVSVLTVLHQDWLNGKEYKCKVSNKALGAPIEKTISKAKGQPREPQVCTLPPSRDELTKNQVSLSCAVKGFYPSDIAVEWESNGQPENNYKTTPPVLDSDGSFFLVSKLTVDKSRWQQGNVFSCSVMHEALHNHYTQKSLSLSPGK
light 1: EIVLTQSPGTLSLSPGERATLSCRASQSVSEYYLAWYQQKPGQAPRLLIEHASTRATGIPDRFSGSGSGTDFTLTISRLEPEDFAVYYCQQYGYPPDFTFGQGTKVEIKRTVAAPSVFIFPPSDRKLKSGTASVVCLLNNFYPREAKVQWKVDNALQSGNSQESVTEQDSKDSTYSLSSTLTLSKADYEKHKVYACEVTHQGLSSPVTKSFNRGEC
light 2: EVQLLESGGGLVQPGGSLRLSCAASGFTFSTYAMNWVRQAPGKGLEWVSRIRSKYNNYATYYADSVKGRFTISRDDSKNTLYLQMNSLRAEDTAVYYCVRHGNFGNSYVSWFAYWGQGTLVTVSSASVAAPSVFIFPPSDEQLKSGTASVVCLLNNFYPREAKVQWKVDNALQSGNSQESVTEQDSKDSTYSLSSTLTLSKADYEKHKVYACEVTHQGLSSPVTKSFNRGEC
notes: also called anti-BCMA/anti-CD3 T cell bispecific antibody of Mab21
Which “EC50 of redirected T-cell killing of L363 cells (LDH release), Donor 1” value [1] does the source give for B1 here?
The value was 0.0836 nM.

And the “EC50 of redirected T-cell killing of L363 cells (LDH release), Donor 2” value [1]?
Its value is 0.0384 nM.

And the “EC50 of redirected T-cell killing of L363 cells (LDH release), Donor 3” value [1]?
Its value is 0.0189 nM.

And the “EC50 of redirected T-cell killing of L363 cells (LDH release), Donor 4” value [1]?
The value was 0.0191 nM.

And the “EC50 of redirected T-cell killing of L363 cells (LDH release), Donor 5” value [1]?
The value was 0.0464 nM.

And the EC50 [2]?
Its EC50 is 11 nM and 1.59 µg/mL.

And the EC50 [3]?
Its EC50 is 6.8 nM and 0.982 µg/mL.

And the “EC50 of redirected T-cell killing of H929 cells (LDH release), Donor 1” value [4]?
The value was 0.0971 nM.

And the “EC50 of redirected T-cell killing of H929 cells (LDH release), Donor 3” value [4]?
Its value is 0.0421 nM.

And the “EC50 of redirected T-cell killing of H929 cells (LDH release), Donor 4” value [4]?
Its value is 0.0539 nM.

What about the “EC50 of redirected T-cell killing of H929 cells (LDH release), Donor 5” value [4] of the same binder?
Its value is 0.0387 nM.

And the “EC50 of redirected T-cell killing of RPMI-8226 cells (LDH release), Donor 2” value [5]?
The value was 0.0413 nM.

And the “EC50 of redirected T-cell killing of RPMI-8226 cells (LDH release), Donor 3” value [5]?
The value was 0.0088 nM.

And the “EC50 of redirected T-cell killing of RPMI-8226 cells (LDH release), Donor 4” value [5]?
Its value is 0.004 nM.

And the “EC50 of redirected T-cell killing of RPMI-8226 cells (LDH release), Donor 5” value [5]?
The value was 0.0084 nM.

B2: 22-TCBcv (bispecific antibody, human IgG1, kappa, L234A L235A)
heavy 1: not shown
heavy 2: EVQLLESGGGLVQPGGSLRLSCAASGFTFSDNAMGWVRQAPGKGLEWVSAISGPGSSTYYADSVKGRFTISRDNSKNTLYLQMNSLRAEDTAVYYCAKVLGWFDYWGQGTLVTVSSASTKGPSVFPLAPSSKSTSGGTAALGCLVEDYFPEPVTVSWNSGALTSGVHTFPAVLQSSGLYSLSSVVTVPSSSLGTQTYICNVNHKPSNTKVDEKVEPKSCDKTHTCPPCPAPEAAGGPSVFLFPPKPKDTLMISRTPEVTCVVVDVSHEDPEVKFNWYVDGVEVHNAKTKPREEQYNSTYRVVSVLTVLHQDWLNGKEYKCKVSNKALGAPIEKTISKAKGQPREPQVCTLPPSRDELTKNQVSLSCAVKGFYPSDIAVEWESNGQPENNYKTTPPVLDSDGSFFLVSKLTVDKSRWQQGNVFSCSVMHEALHNHYTQKSLSLSPGK
light 1: EIVLTQSPGTLSLSPGERATLSCRASQSVSSYYLAWYQQKPGQAPRLLISGAGSRATGIPDRFSGSGSGTDFTLTISRLEPEDFAVYYCQQYGYPPDFTFGQGTKVEIKRTVAAPSVFIFPPSDRKLKSGTASVVCLLNNFYPREAKVQWKVDNALQSGNSQESVTEQDSKDSTYSLSSTLTLSKADYEKHKVYACEVTHQGLSSPVTKSFNRGEC
light 2: EVQLLESGGGLVQPGGSLRLSCAASGFTFSTYAMNWVRQAPGKGLEWVSRIRSKYNNYATYYADSVKGRFTISRDDSKNTLYLQMNSLRAEDTAVYYCVRHGNFGNSYVSWFAYWGQGTLVTVSSASVAAPSVFIFPPSDEQLKSGTASVVCLLNNFYPREAKVQWKVDNALQSGNSQESVTEQDSKDSTYSLSSTLTLSKADYEKHKVYACEVTHQGLSSPVTKSFNRGEC
notes: also called 22-TCVcv; anti-BCMA/anti-CD3 T cell bispecific antibody of Mab22
How did the “EC50 of redirected T-cell killing of L363 cells (LDH release), Donor 1” value [1] turn out when B2 was run?
The value was 0.0975 nM.

What about the “EC50 of redirected T-cell killing of L363 cells (LDH release), Donor 2” value [1] of the same binder?
The value was 0.0277 nM.

And the “EC50 of redirected T-cell killing of L363 cells (LDH release), Donor 3” value [1]?
The value was 0.0165 nM.

What about the “EC50 of redirected T-cell killing of L363 cells (LDH release), Donor 4” value [1] of the same binder?
The value was 0.0146 nM.

What about the “EC50 of redirected T-cell killing of L363 cells (LDH release), Donor 5” value [1] of the same binder?
Its value is 0.056 nM.

And the “Annexin-V positive JJN-3 cells (%) at 0.1 pM TCB, Experiment 2” value [6]?
The value was 14.8%.

What about the “Annexin-V positive JJN-3 cells (%) at 1 pM TCB, Experiment 1” value [6] of the same binder?
The value was 9.3%.

And the “Annexin-V positive JJN-3 cells (%) at 1 pM TCB, Experiment 2” value [6]?
Its value is 15%.

What about the “Annexin-V positive JJN-3 cells (%) at 10 pM TCB, Experiment 1” value [6] of the same binder?
The value was 13.3%.

What about the “Annexin-V positive JJN-3 cells (%) at 10 pM TCB, Experiment 2” value [6] of the same binder?
Its value is 15.9%.

What about the “Annexin-V positive JJN-3 cells (%) at 100 pM TCB, Experiment 1” value [6] of the same binder?
The value was 12.5%.

And the “Annexin-V positive JJN-3 cells (%) at 100 pM TCB, Experiment 2” value [6]?
The value was 18.4%.

What about the “Annexin-V positive JJN-3 cells (%) at 1000 pM TCB, Experiment 1” value [6] of the same binder?
Its value is 26.1%.

And the “Annexin-V positive JJN-3 cells (%) at 1000 pM TCB, Experiment 2” value [6]?
Its value is 27%.

And the “Annexin-V positive JJN-3 cells (%) at 10000 pM TCB, Experiment 1” value [6]?
Its value is 22.9%.

And the “Annexin-V positive JJN-3 cells (%) at 10000 pM TCB, Experiment 2” value [6]?
The value was 29.7%.

And the EC50 [2]?
Its EC50 is 7.9 nM and 1.14 µg/mL.

And the EC50 [7]?
Its EC50 is 30 nM and 4.33 µg/mL.

And the “EC50 of redirected T-cell killing of H929 cells (LDH release), Donor 1” value [4]?
Its value is 0.0532 nM.

And the “EC50 of redirected T-cell killing of H929 cells (LDH release), Donor 3” value [4]?
Its value is 0.0422 nM.

And the “EC50 of redirected T-cell killing of H929 cells (LDH release), Donor 4” value [4]?
The value was 0.0232 nM.

And the “EC50 of redirected T-cell killing of H929 cells (LDH release), Donor 5” value [4]?
The value was 0.0289 nM.

What about the “Lysis of JJN-3 cells (%) at 0.1 pM TCB, Experiment 2” value [8] of the same binder?
Its value is 36.5%.

And the “Lysis of JJN-3 cells (%) at 1 pM TCB, Experiment 1” value [8]?
The value was -4.29%.

And the “Lysis of JJN-3 cells (%) at 1 pM TCB, Experiment 2” value [8]?
The value was 24.4%.

What about the “Lysis of JJN-3 cells (%) at 10 pM TCB, Experiment 1” value [8] of the same binder?
Its value is 73.6%.

And the “Lysis of JJN-3 cells (%) at 10 pM TCB, Experiment 2” value [8]?
Its value is 41.7%.

And the “Lysis of JJN-3 cells (%) at 100 pM TCB, Experiment 1” value [8]?
Its value is 56.3%.

What about the “Lysis of JJN-3 cells (%) at 100 pM TCB, Experiment 2” value [8] of the same binder?
The value was 53%.

And the “Lysis of JJN-3 cells (%) at 1000 pM TCB, Experiment 1” value [8]?
Its value is 90.5%.

What about the “Lysis of JJN-3 cells (%) at 1000 pM TCB, Experiment 2” value [8] of the same binder?
The value was 94.1%.

And the “Lysis of JJN-3 cells (%) at 10000 pM TCB, Experiment 1” value [8]?
Its value is 88%.

And the “Lysis of JJN-3 cells (%) at 10000 pM TCB, Experiment 2” value [8]?
Its value is 91.2%.

What about the “EC50 of redirected T-cell killing of RPMI-8226 cells (LDH release), Donor 2” value [5] of the same binder?
Its value is 0.0476 nM.

And the “EC50 of redirected T-cell killing of RPMI-8226 cells (LDH release), Donor 3” value [5]?
The value was 0.0076 nM.

What about the “EC50 of redirected T-cell killing of RPMI-8226 cells (LDH release), Donor 4” value [5] of the same binder?
Its value is 0.0032 nM.

What about the “EC50 of redirected T-cell killing of RPMI-8226 cells (LDH release), Donor 5” value [5] of the same binder?
Its value is 0.0055 nM.
